Earlier results, collected in article PMC2709459 (Biochimica et biophysica acta, 2008).

Molecular target: C5aR
Details: C5aR in transfected CHO cells

B1: C5a: complement C5a fragment, anaphylatoxin ligand of C5aR (protein, UniProt P01031 678-751, looked up)
C5a anaphylatoxin: TLQKKIEEIAAKYKHSVVKKCCYDGACVNNDETCEQRAARISLGPRCIKAFTECCVVASQLRANISHKDMQLGR
modifications: C5a anaphylatoxin
For B1, the Kd is listed as 10 nM.
